B1: mouse WT sNASP (somatic nuclear autoantigenic sperm protein), B6 allele (natural protein)
chain: MATESTAAAAIAAELVSADKIEDAPAPSTSADKMESLDVDSEAKKLLGLGQKHLVMGDIPAAVNAFQEAASLLGKKYGETANECGEAFFFYGKSLLELARMENGVLGNALEGVHVEEEEGEKTEDESLVENNDNVDETEGSEEEDRENDKAEETPNESVLEKKSLQENEEEEIGNLELAWDMLDLAKIIFKRQETKEAQLYAAQAHLKLGEVSVESENYIQAVEEFQACLSLQEQYLEAHDRLLAETHYQLGLAYGYNSQYDEAVAQFGKSIDVIEKRMAVLHEQMKEAEGSFTEYEKEIEELKELLPEIREKIEDAKESQRSGNVAELALKATLVESSTSGFTPSGAGASVSMIASRKPTDGASSSNCVTDISHLVRKKRKPEEESPRKDDAKKAKQEPEVNGGSGDAVSSGKEVSENMEAEAENQAESQTAEGTVESAATIKSTAC
modifications: Somatic isoform of 448 aa = 773-aa tNASP entry lacking 325 residues (internal testis-specific exon). Junction 137/463 set by homology to human sNASP and the printed length, not printed in the paper. …

How the values were obtained:
[1] = target: B1; assay: BLI; Octet K2, 30 C; sNASP WT or variant immobilised on aminopropylsilane (APS) biosensors, histones in assay buffer at various concentrations (62.5 to 1,000 nM shown for H4), association 240 s; n = 4; conditions: both partners purified
mouse histone H4 = mouse histone H4 (mouse, UniProt P62806 1-103); assay: as above; conditions: both partners purified

| Kd [1] [nM] | kon [1] [M⁻¹ s⁻¹] | Kd (mouse histone H4) [nM] | kon (mouse histone H4) [M⁻¹ s⁻¹] | Binder |
| --- | --- | --- | --- | --- |
| 387 | 10100 | – | – | mouse histone H1a (natural protein, UniProt P43275 1-213, looked up, mouse histone H1a (H1.1); source: bought: Lifespan Biosciences) MSETAPVAQAASTATEKPAAAKKTKKPAKAAAPRKKPAGPSVSELIVQAVSSSKERSGVSLAALKKSLAAAGYDVEKNNSRIKLGLKSLVNKGTLVQTKGTGAAGSFKLNKKAESKAITTKVSVKAKASGAAKKPKKTAGAAAKKTVKTPKKPKKPAVSKKTSKSPKKPKVVKAKKVAKSPAKAKAVKPKASKAKVTKPKTPAKPKKAAPKKK |
| – | – | 40.7 | 1990 | B1 |
